# T1: human GIP receptor (human, UniProt P48546 22-466)
# T1 sequence (looked up): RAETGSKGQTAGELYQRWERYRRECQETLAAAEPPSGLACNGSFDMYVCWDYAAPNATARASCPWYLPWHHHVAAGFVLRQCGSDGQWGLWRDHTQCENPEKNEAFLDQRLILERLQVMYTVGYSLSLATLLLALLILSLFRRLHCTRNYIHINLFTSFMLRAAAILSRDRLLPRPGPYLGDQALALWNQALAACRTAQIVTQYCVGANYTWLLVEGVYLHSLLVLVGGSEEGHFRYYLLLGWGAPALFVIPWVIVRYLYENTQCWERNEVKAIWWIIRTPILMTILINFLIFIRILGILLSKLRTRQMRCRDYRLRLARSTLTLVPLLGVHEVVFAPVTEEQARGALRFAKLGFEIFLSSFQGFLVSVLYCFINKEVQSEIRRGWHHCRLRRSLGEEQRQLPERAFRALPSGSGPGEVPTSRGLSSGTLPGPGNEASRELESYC
# T2: human gastric inhibitory peptide receptor (GIPR) (human, UniProt P48546 22-466)
# T2 sequence (looked up): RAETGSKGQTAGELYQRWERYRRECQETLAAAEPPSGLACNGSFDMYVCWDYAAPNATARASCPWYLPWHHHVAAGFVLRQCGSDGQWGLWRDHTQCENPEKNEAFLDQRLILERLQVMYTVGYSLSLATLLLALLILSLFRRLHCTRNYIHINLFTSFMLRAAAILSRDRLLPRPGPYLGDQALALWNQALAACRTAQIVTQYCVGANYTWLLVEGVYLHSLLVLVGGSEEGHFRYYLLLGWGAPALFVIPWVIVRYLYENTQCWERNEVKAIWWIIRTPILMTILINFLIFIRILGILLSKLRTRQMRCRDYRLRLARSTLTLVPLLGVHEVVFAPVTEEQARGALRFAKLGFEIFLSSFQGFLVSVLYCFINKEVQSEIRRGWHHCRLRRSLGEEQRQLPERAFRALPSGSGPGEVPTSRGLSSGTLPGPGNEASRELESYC
# Key:
# Experiment in all cases: cell-based or functional assay
# human GLP-1 receptor = human GLP-1 receptor (human, UniProt P43220 24-463)
# human glucagon receptor = human glucagon receptor (human, UniProt P47871 26-477)
# Sequence of human glucagon receptor (P47871 26-477): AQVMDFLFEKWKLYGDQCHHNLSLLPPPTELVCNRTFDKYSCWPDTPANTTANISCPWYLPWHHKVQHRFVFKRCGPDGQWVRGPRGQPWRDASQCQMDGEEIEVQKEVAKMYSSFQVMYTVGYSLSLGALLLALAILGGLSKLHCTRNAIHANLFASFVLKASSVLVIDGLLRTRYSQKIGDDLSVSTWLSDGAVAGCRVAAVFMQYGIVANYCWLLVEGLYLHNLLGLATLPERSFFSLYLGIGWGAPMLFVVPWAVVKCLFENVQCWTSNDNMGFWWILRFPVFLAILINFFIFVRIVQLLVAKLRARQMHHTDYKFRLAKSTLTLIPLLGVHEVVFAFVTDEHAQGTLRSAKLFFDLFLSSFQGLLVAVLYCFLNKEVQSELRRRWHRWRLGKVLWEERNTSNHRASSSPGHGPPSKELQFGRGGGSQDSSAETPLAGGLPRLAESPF
# human GIP receptor = molecular target: T1, human GIP receptor
# [1] = molecular target: human GLP-1 receptor (GLP-1R) (human, UniProt P43220 24-463)
# [2] = molecular target: T2, human gastric inhibitory peptide …
# For hGIPR cAMP EC50 ratio in this document: reference of the scale not given here.
# For hGLP1R cAMP EC50 ratio in this document: reference of the scale not given here.
Binder,cAMP EC50 (human GLP-1 receptor) [nM],cAMP EC50 (human glucagon receptor) [nM],cAMP EC50 (human GIP receptor) [nM],hGLP1R cAMP EC50 ratio [1] [ratio],hGLP1R cAMP Rel EC50 [1] [nM],hGIPR cAMP EC50 ratio [2] [ratio],hGIPR cAMP Rel EC50 [2] [nM]
YXEGTXTSDYSIXLDXKAQXEFIXYLIEGGPSSGAPPPS (Aib2; αMeF(2F)6; αMeL13; Orn16; K17((2-[2-(2-Amino-ethoxy)-ethoxy]-acetyl)2-(γ-Glu)-CO-(CH2)16-CO2H); Aib20; D-Glu24; C-terminal amide) [Example 2],6.52,> 10900,2.64,,,,
YXEGTXTSDXSIXLDXKAQXEFIXXLIEGGPSSGAPPPS (Aib2; αMeF(2F)6; 4Pal10; αMeL13; Orn16; K17((2-[2-(2-Amino-ethoxy)-ethoxy]-acetyl)2-(γ-Glu)-CO-(CH2)16-CO2H); Aib20; D-Glu24; αMeY25; C-terminal amide) [Example 4],2.02,> 10900,1.03,,,,
XXEGTFTSDYSIXLDXKAQXAFIXYLIAGGPSSGAPPPS (D-Tyr1; Aib2; αMeL13; Orn16; K17 conjugated to (2-[2-(2-Amino-ethoxy)-ethoxy]-acetyl)2-(γ-Glu)-CO-(CH2)16-CO2H; Aib20; D-Glu24; C-terminal amide) [Example 363],,,,0.146,0.208,0.835,0.145
XXEGTFTSDYSIXLDXKAQXEFIEXLIEGGPSSGAPPPS (D-Tyr1; Aib2; αMeL13; Orn16; K17 conjugated to (2-[2-(2-Amino-ethoxy)-ethoxy]-acetyl)2-(γ-Glu)-CO-(CH2)18-CO2H; Aib20; αMeY25; C-terminal amide) [Example 380],,,,0.115,0.236,0.374,0.142
YXEGTXTSDYSIXLDXKAQXEFIXYLIEGGPSSGAPPPS (Aib2; αMeF(2F)6; αMeL13; Orn16; K17((2-[2-(2-Amino-ethoxy)-ethoxy]-acetyl)2-(γ-Glu)-CO-(CH2)18-CO2H); Aib20; D-Glu24; C-terminal amide) [Example 3],19.4,> 10900,9.24,,,,
YXEGTXTSDYSIXLDEKAQXEFIXYLIEGGPSSGAPPPS (Aib2; αMeF(2F)6; αMeL13; K17((2-[2-(2-Amino-ethoxy)-ethoxy]-acetyl)2-(γ-Glu)-CO-(CH2)18-CO2H); Aib20; D-Glu24; C-terminal amide) [Example 1],53.3,> 11400,38.5,,,,
XXEGTFTSDYSIXLDXKAQXEFIEYLIAGGPSSGAPPPS (D-Tyr1; Aib2; αMeL13; Orn16; K17 conjugated to (2-[2-(2-Amino-ethoxy)-ethoxy]-acetyl)2-(γ-Glu)-CO-(CH2)16-CO2H; Aib20; C-terminal amide) [Example 368],,,,0.299,0.108,0.109,0.0757
YXEGTXTSDVSIXLDXKAQXEFIXXLIEGGPSSGAPPPS (Aib2; αMeF(2F)6; αMeL13; Orn16; K17((2-[2-(2-Amino-ethoxy)-ethoxy]-acetyl)2-(γ-Glu)-CO-(CH2)16-CO2H); Aib20; D-Glu24; αMeY25; C-terminal amide) [Example 5],1.61,> 10900,1.98,,,,
XXEGTFTSDYSIXLDXKAQXEFIEYLIAGGPSSGAPPPS (D-Tyr1; Aib2; αMeL13; Orn16; K17 conjugated to (2-[2-(2-Amino-ethoxy)-ethoxy]-acetyl)-(γ-Glu)-CO-(CH2)18-CO2H; Aib20; C-terminal amide) [Example 371],,,,0.206,0.132,0.393,0.135
YXEGTFTSDYSIXLDKKAQXEFIEXLIAGGPSSGAPPPS (Aib2; αMeL13; K17 conjugated to (2-[2-(2-Amino-ethoxy)-ethoxy]-acetyl)2-(γ-Glu)-CO-(CH2)18-CO2H; Aib20; αMeY25; C-terminal amide) [Example 367],,,,0.386,0.0641,5.85,0.0179
XXEGTFTSDYSIXLDKKAQXEFIEXLIAGGPSSGAPPPS (D-Tyr1; Aib2; αMeL13; K17 conjugated to (2-[2-(2-Amino-ethoxy)-ethoxy]-acetyl)-(γ-Glu)-CO-(CH2)18-CO2H; Aib20; αMeY25; C-terminal amide) [Example 372],,,,0.0741,0.365,0.68,0.0781
XXEGTFTSDYSIXLDKKAQXEFIEXLIAGGPSSGAPPPS (D-Tyr1; Aib2; αMeL13; K17 conjugated to (2-[2-(2-Amino-ethoxy)-ethoxy]-acetyl)2-(γ-Glu)-CO-(CH2)16-CO2H; Aib20; αMeY25; C-terminal amide) [Example 374],,,,0.169,0.19,1.76,0.0468
XXEGTFTSDYSIXLDKKAQXEFIEXLIEGGPSSGAPPPS (D-Tyr1; Aib2; αMeL13; K17 conjugated to (2-[2-(2-Amino-ethoxy)-ethoxy]-acetyl)2-(γ-Glu)-CO-(CH2)18-CO2H; Aib20; αMeY25; C-terminal amide) [Example 379],,,,0.114,0.238,0.672,0.079
XXEGTFTSDYSIXLDXKAQXEFIEYLIAGGPSSG (D-Tyr1; Aib2; αMeL13; Orn16; K17 conjugated to (2-[2-(2-Amino-ethoxy)-ethoxy]-acetyl)2-(γ-Glu)-CO-(CH2)18-CO2H; Aib20; C-terminal amide) [Example 370],,,,0.172,0.186,0.704,0.117
XXEGTFTSDYSIXLDXKAQXAFVXYLIAGGPSSGAPPPS (D-Tyr1; Aib2; αMeL13; Orn16; K17 conjugated to (2-[2-(2-Amino-ethoxy)-ethoxy]-acetyl)2-(γ-Glu)-CO-(CH2)18-CO2H; Aib20; D-Glu24; C-terminal amide) [Example 362],,,,0.0805,0.365,0.347,0.302
XXEGTFTSDYSIXLDKKAQXAFIEXLIAGGPSSGAPPPS (D-Tyr1; Aib2; αMeL13; K17 conjugated to (2-[2-(2-Amino-ethoxy)-ethoxy]-acetyl)2-(γ-Glu)-CO-(CH2)16-CO2H; Aib20; αMeY25; C-terminal amide) [Example 376],,,,0.159,0.17,0.734,0.0723
XXEGTFTSDYSIXLDXKAQXAFIEXLIAGGPSSGAPPPS (D-Tyr1; Aib2; αMeL13; Orn16; K17 conjugated to (2-[2-(2-Amino-ethoxy)-ethoxy]-acetyl)2-(γ-Glu)-CO-(CH2)18-CO2H; Aib20; αMeY25; C-terminal amide) [Example 366],,,,0.074,0.366,0.598,0.0889
XXEGTFTSDYSIXLDXKAQXEFIEXLIAGGPSSGAPPPS (D-Tyr1; Aib2; αMeL13; Orn16; K17 conjugated to (2-[2-(2-Amino-ethoxy)-ethoxy]-acetyl)2-(γ-Glu)-CO-(CH2)16-CO2H; Aib20; αMeY25; C-terminal amide) [Example 375],,,,0.178,0.152,1.13,0.0471
XXEGTFTSDYSIXLDXKAQXAFIEXLIAGGPSSGAPPPS (D-Tyr1; Aib2; αMeL13; Orn16; K17 conjugated to (2-[2-(2-Amino-ethoxy)-ethoxy]-acetyl)2-(γ-Glu)-CO-(CH2)16-CO2H; Aib20; αMeY25; C-terminal amide) [Example 377],,,,0.199,0.136,0.976,0.0544
XXEGTFTSDYSIXLDKKAQXEFIEYLIAGGPSSGAPPPS (D-Tyr1; Aib2; αMeL13; K17 conjugated to (2-[2-(2-Amino-ethoxy)-ethoxy]-acetyl)-(γ-Glu)-CO-(CH2)18-CO2H; Aib20; C-terminal amide) [Example 378],,,,0.142,0.191,0.793,0.067
XXEGTFTSDYSIXLDXKAQXDFIEYLIAGGPSSGAPPPS (D-Tyr1; Aib2; αMeL13; Orn16; K17 conjugated to (2-[2-(2-Amino-ethoxy)-ethoxy]-acetyl)2-(γ-Glu)-CO-(CH2)18-CO2H; Aib20; C-terminal amide) [Example 369],,,,0.319,0.101,0.499,0.166
XXEGTFTSDYSIXLDKKAQXAFIEXLIAGGPSSGAPPPS (D-Tyr1; Aib2; αMeL13; K17 conjugated to (2-[2-(2-Amino-ethoxy)-ethoxy]-acetyl)-(γ-Glu)-CO-(CH2)18-CO2H; Aib20; αMeY25; C-terminal amide) [Example 373],,,,0.0621,0.436,0.287,0.185
XXEGTFTSDYSIXLDXKAQXAFVXYLIAGGPSSGAPPPS (D-Tyr1; Aib2; αMeL13; Orn16; K17 conjugated to (2-[2-(2-Amino-ethoxy)-ethoxy]-acetyl)2-(γ-Glu)-CO-(CH2)16-CO2H; Aib20; D-Glu24; C-terminal amide) [Example 364],,,,0.0303,1,0.347,0.351
XXEGTFTSDYSIXLDKKAQXAFIEXLIAGGPSSGAPPPS (D-Tyr1; Aib2; αMeL13; K17 conjugated to (2-[2-(2-Amino-ethoxy)-ethoxy]-acetyl)2-(γ-Glu)-CO-(CH2)18-CO2H; Aib20; αMeY25; C-terminal amide) [Example 365],,,,0.155,0.175,0.784,0.0678
